This note sets out measurements from US20140112930A1 (published 2014).

One assay concerns the target T1, Biotin-hBA2 (human, biotinylated (sites not given)).
T1 construct: hBA2 consists of two dimers; also called biotinylated hBA2; human bow-Ang2
Briefly: blocking ELISA, biotin-hBA2 to hTie-2.

Assay [1] concerns the target T2, wild-type Ang-2FD-mFc construct (human, UniProt O15123 282-496).
T2 construct: also called WT; hAng-2FD-mFc; not shown: mouse Fc
T2 sequence: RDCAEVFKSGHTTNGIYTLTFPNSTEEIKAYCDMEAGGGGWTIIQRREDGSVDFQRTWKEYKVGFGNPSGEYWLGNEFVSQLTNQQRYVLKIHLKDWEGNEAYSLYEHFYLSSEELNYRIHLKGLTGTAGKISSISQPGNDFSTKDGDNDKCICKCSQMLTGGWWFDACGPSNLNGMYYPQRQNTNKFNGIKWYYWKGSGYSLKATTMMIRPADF
Briefly: SPR 25C, hAng-2FD-mFc captured on anti-mFc, 100 nM analyte.

The target of another assay is T3, hAng-2FD-mFc Y-475-H (human, UniProt O15123 282-496).
T3 construct: not shown: mouse Fc
T3 chain: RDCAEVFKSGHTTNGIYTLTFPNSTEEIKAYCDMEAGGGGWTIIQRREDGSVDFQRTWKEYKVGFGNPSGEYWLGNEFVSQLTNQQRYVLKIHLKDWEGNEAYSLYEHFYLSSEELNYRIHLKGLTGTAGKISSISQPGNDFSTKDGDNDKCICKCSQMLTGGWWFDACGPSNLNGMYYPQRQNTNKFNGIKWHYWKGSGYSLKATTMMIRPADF
The assay is described as above.

The next assay addresses T4, hAng-2FD-mFc F-469-L (human, UniProt O15123 282-496).
T4 construct: not shown: mouse Fc
T4 chain: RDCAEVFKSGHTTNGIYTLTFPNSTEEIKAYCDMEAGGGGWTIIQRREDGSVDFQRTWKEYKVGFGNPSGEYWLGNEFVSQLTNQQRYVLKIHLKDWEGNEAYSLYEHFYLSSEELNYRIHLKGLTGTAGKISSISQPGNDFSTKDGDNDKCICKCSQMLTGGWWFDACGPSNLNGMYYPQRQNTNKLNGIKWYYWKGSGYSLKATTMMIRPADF
The assay is described as above.

The target in a further assay is T5, hAng-2FD-mFc S-417-I (human, UniProt O15123 282-496).
T5 construct: not shown: mouse Fc
T5 chain: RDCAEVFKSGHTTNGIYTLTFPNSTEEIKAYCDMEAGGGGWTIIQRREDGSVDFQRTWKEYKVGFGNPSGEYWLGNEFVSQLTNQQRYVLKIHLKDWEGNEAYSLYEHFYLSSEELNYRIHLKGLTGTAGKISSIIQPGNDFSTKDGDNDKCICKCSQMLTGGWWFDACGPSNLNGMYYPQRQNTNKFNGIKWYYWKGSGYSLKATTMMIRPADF
The description is as above.

Assay [2] has as its target T6, Full-length human Ang-1 protein conjugated to 6x histidine tag (human, UniProt Q15389 20-498, limits assumed).
T6 construct: Bought (R&D Systems); printed as full-length; also called hAng-1 WT; Ang-1-His; not shown: 6x histidine tag
T6 sequence (looked up): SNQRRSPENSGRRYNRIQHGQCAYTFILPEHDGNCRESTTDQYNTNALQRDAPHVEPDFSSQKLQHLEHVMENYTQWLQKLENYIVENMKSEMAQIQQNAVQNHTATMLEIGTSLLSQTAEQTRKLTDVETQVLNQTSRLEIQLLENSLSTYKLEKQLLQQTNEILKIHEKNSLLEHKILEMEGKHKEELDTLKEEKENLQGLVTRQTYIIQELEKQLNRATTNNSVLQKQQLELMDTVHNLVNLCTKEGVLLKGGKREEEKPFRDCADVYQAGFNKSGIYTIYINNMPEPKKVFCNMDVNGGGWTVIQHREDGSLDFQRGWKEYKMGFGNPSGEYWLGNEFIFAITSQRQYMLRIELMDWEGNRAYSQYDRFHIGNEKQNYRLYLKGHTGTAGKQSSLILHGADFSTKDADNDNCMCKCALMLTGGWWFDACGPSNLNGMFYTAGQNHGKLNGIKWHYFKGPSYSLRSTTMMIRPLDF
Briefly: blocking ELISA, 0.6 nM hAng-1-His to coated hTie-2-mFc. The method, then: Briefly, hTie-2-mFc (a chimeric construct consisting of human Tie-2 conjugated to mouse IgG; SEQ ID NO:525) was coated onto 96-well plates at a concentration of 2 μg/ml and incubated overnight followed by washing four times in wash buffer (PBS with 0.05% Tween-20). The plate was then blocked with PBS (Irvine Scientific, Santa Ana, Calif.) containing 0.5% BSA (Sigma-Aldrich Corp., St. Louis, Mo.) for one hour at room temperature. […] The antibody/antigen mixture was then added to the plate containing hTie-2-mFc and incubated for one hour at room temperature. […] Absorbance was read at OD₄₅₀ for 0.1 sec.

The target of a further assay is T7, hAng-1-WT (human, UniProt Q15389 20-498, limits assumed).
T7 construct: a tag is not mentioned there; also called full-length wild-type human Ang-1
T7 sequence (looked up): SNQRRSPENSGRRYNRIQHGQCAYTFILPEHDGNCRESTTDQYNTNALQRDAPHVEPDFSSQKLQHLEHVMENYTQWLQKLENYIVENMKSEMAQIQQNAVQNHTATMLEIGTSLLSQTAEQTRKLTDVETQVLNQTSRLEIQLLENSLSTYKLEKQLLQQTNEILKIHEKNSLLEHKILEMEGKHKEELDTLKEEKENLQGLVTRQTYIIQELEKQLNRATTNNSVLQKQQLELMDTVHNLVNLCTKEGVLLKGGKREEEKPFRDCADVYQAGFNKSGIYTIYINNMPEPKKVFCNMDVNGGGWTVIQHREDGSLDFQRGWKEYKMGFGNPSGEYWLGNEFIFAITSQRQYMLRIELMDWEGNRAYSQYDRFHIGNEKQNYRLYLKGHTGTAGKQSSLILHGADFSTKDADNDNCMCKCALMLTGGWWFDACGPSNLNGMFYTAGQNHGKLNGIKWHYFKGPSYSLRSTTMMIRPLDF
The assay is described as follows: SPR, 1 uM blocker premixed with 10 nM hAng-1-WT, over hTie-2-mFc surface. The method, then: In this experiment, a human Tie-2 full-length extracellular domain construct (hTie-2-mFc-ecto) was amine-coupled on a BIACORE™ chip to create a receptor coated surface. […] The equilibrated solutions were injected over the receptor surfaces at 5 μL/min for 5 minutes at 25° C.

T1 sequence (chain, as listed by the source limits assumed): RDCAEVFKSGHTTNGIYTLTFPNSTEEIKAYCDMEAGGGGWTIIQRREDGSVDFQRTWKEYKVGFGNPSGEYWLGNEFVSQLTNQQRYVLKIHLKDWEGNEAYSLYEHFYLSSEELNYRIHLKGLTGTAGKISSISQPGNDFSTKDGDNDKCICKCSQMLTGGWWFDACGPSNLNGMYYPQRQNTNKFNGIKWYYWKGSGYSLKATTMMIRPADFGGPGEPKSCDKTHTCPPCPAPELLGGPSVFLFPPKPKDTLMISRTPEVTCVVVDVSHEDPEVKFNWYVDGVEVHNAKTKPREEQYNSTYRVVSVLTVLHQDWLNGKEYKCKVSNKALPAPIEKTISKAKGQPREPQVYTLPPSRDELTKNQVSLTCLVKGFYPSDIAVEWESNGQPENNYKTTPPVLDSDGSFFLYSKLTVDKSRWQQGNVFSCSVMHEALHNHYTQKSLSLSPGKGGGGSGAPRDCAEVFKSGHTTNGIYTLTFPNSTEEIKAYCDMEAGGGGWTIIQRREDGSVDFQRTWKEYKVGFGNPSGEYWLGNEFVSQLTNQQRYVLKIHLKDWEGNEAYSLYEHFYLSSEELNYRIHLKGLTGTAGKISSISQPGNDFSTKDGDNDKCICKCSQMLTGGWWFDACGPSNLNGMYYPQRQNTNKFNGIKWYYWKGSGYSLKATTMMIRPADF

B1: H1H744N (antibody, V domains shown)
VH: QVQLVQSGVEVKKPGASVKVSCKTSGYTFSNNGFSWVRQAPGQGLEWLGWISGYNGNTNYAQKFQGRVTMTTDTSTSTAYMELRTLRSDDTAVYYCARDQDYSNFHWLDPWGQGTLVTVAS
VL: DIQMTQSPSSVSASVGDRVIITCRASQGLSSWLAWYQQKPGTAPKLLIHSASSLQTGVPSRFSGSGSGTEFALTINSLQPEDFGTYYCQQANSFPLTFGGGTRVEIK
With B1, the IC50 in the assay with Biotin-hBA2 was 0.025 nM; in assay [2] it was 187 nM. For the same molecule, the Kd in assay [1] was 0.0398 nM; with hAng-2FD-mFc Y-475-H it was 0.306 nM; with hAng-2FD-mFc F-469-L, 0.195 nM; with hAng-2FD-mFc S-417-I, 0.0512 nM. For the same molecule, the RU in assay [1] came out at 213 RU; in the assay with hAng-2FD-mFc Y-475-H it was 247 RU; with hAng-2FD-mFc F-469-L, 180 RU; in the assay with hAng-2FD-mFc S-417-I it was 127 RU. Besides, the “T ½” value in assay [1] came to 15.1 h; with hAng-2FD-mFc Y-475-H it was 2.27 h; in the assay with hAng-2FD-mFc F-469-L, 3.95 h; with hAng-2FD-mFc S-417-I, 26.5 h. Further, in the assay with hAng-1-WT, the “Percent of Negative Control Binding” value was determined as 34%.
